These results are taken from article PMC8514532 (2021).

In this assay the target is PopP2 (149-488), AVI-tagged and biotinylated, the 'WT' of the BLI assay (Ralstonia solanacearum, UniProt Q8Y125 149-488). Kind of assay: BLI. A general note: In BLI a coated tip is dipped into the sample, and binding shifts an interference pattern.

B1: WRKY DNA-binding domain of the Arabidopsis RRS1-R immune receptor (domain or fragment)
chain: SESKVKKVVSIPAIDEGDLWTWRKYGQKDILGSRFPRGYYRCAYKFTHGCKATKQVQRSETDSNMLAITYLSEHNHPRPT
As for B1, binding was characterised by a dissociation constant (Kd) of 13 nM.
